Paper PMC3985934 (Biochemistry, 2014)
Numbering of substitutions follows the chain as printed. Names and notes keep the numbering of the source. Read-outs that look alike come from different tables or passages of the source.

B1: Rhizobium etli pyruvate carboxylase, wild type (enzyme)
chain: PISKILVANRSEIAIRVFRAANELGIKTVAIWAEEDKLALHRFKADESYQVGRGPHLARDLGPIESYLSIDEVIRVAKLSGADAIHPGYGLLSESPEFVDACNKAGIIFIGPKADTMRQLGNKVAARNLAISVGVPVVPATEPLPDDMAEVAKMAAAIGYPVMLKASWGGGGRGMRVIRSEADLAKEVTEAKREAMAAFGKDEVYLEKLVERARHVESQILGDTHGNVVHLFERDCSVQRRNQKVVERAPAPYLSEAQRQELAAYSLKIAGATNYIGAGTVEYLMDADTGKFYFIEVNPRIQVEHTVTEVVTGIDIVKAQIHILDGAAIGTPQSGVPNQEDIRLNGHALQCRVTTEDPEHNFIPDYGRITAYRSASGFGIRLDGGTSYSGAIITRYYDPLLVKVTAWAPNPLEAISRMDRALREFRIRGVATNLTFLEAIIGHPKFRDNSYTTRFIDTTPELFQQVKRQDRATKLLTYLADVTVNGHPEAKDRPKPLENAARPVVPYANGNGVKDGTKQLLDTLGPKKFGEWMRNEKRVLLTDTTMRDGHQSLLATRMRTYDIARIAGTYSHALPNLLSLECWGGATFDVSMRFLTEDPWERLALIREGAPNLLLQMLLRGANGVGYTNYPDNVVKYFVRQAAKGGIDLFRVFDCLNWVENMRVSMDAIAEENKLCEAAICYTGDILNSARPKYDLKYYTNLAVELEKAGAHIIAVKDMAGLLKPAAAKVLFKALREATGLPIHFHTHDTSGIAAATVLAAVEAGVDAVDAAMDALSGNTSQPCLGSIVEALSGSERDPGLDPAWIRRISFYWEAVRNQYAAFESDLKGPASEVYLHEMPGGQFTNLKEQARSLGLETRWHQVAQAYADANQMFGDIVKVTPSSKVVGDMALMMVSQDLTVADVVSPDREVSFPESVVSMLKGDLGQPPSGWPEALQKKALKGEKPYTVRPGSLLKEADLDAERKVIEKKLEREVSDFEFASYLMYPKVFTDFALASDTYGPVSVLPTPAYFYGLADGEELFADIEKGKTLVIVNQAVSATDSQGMVTVFFELNGQPRRIKVPDRAHGATGAAVRRKAEPGNAAHVGAPMPGVISRVFVSSGQAVNAGDVLVSIEAMKMETAIHAEKDGTIAEVLVKAGDQIDAKDLLAVYGG
modifications: biotin prosthetic group (enzymic biotin; residue not given)
B2: Rhizobium etli pyruvate carboxylase, H216N mutant (enzyme)
chain: B1 chain with H215N
modifications: biotin prosthetic group (enzymic biotin; residue not given)

Columns and labels:
[1] = target: the molecule itself; experiment: AUC
[2] = target: the molecule itself; experiment: AUC; remark: listed apart in the source

Protein	stoichiometry N [1]	stoichiometry N [2]
B1	4	4
B2	4	4
